Series [1] concerns VCAM-1. The series can be described thus: VCAM-1 mRNA expression in endothelial cells (Taqman PCR). The series is classed as cell-based, human. To be noted: vs scrambled premiR control; FIG. 13. As to the method:
(§1) Human endothelial cells were transfected with premiR-100 and scrambled premiR control oligonucleotides. After RNA isolation, the relative expression rate of the mRNA of different adhesion molecules was measured using the Stem loop Taqman PCR (P value≦0.005).
(Real-time PCR tracks product formation cycle by cycle.)

A further series deals with E-Selectin (SELE). The series can be described thus: Agilent microarray after miR-100 overexpression in endothelial cells, E-Selectin. The series is classed as cell-based, human. To be noted: 48 hours after transfection vs control oligonucleotide, FIG. 12. How it is done:
(§2) After discovering the high baseline expression of miR-100 in endothelial cells and its downregulation in response to vascular injury and ischemia, the function of this microRNA in endothelial cells (EC) was investigated. Therefore, miR-100 was overexpressed in EC by transfecting a synthetic miR-100 precursor molecule (pre-mir) and analysed global mRNA gene expression changes compared to transfection with a control oligonucleotide at 48 hours after transfection on a human Agilent 4×44 k microarray platform.
(§3) Microarray results were analysed both on individual gene level as well as by biological pathway analysis using the “Panther Pathways Analysis” Tool that tests changes in gene expression for enrichment of specific biological pathways or cellular functions.
(§4) Endothelial cells were transfected with miR-100 precursor oligonucleotides. Total RNA was isolated after 48 h for microarray analysis of global gene expression.

Series [2] relates to ICAM-1. Briefly: ICAM-1 protein expression in endothelial cells (Western blot). The series is classed as cell-based, human. How it is done:
(§5) MiRNA-100 was overexpressed in human endothelial cells followed by protein isolation. Using Western blots, the protein expression of VCAM-1, ICAM-1 and E-Selectin was determined. FIGS. 14A and B show the ratio between volume intensity of the protein-samples and the loading control (β-tubulin) for [A] the baseline expression and [B] the expression after 24 h TNF-α stimulation.
For orientation: Immunoblotting shows a protein as a band on a membrane.

The next series deals with mTOR. Briefly: mTOR expression in endothelial cells after miR-100 modulation. The series is classed as cell-based, human. Conditions: FIG. 5. How it is done:
The binding site of miR-100 in the 3′-UTR of mTOR is shown in (FIG. 6.) In FIG. 6 the sequence designated hsa-miR-100 corresponds to SEQ ID NO:1 and the sequence having the designation mTOR 3′UTR corresponds to SEQ ID NO:7.
(§6) For transfection with pre-miR microRNA precursor molecules or anti-miRmiRNA inhibitors (all Ambion), cells were cultured to 70% confluence and transfected with 8nM pre-miR-100 or anti-miR-100 oligonucleotides using Lipofectamin RNAiMax (invitrogen) according to the manufacturers instructions. For transfection of HEK293 cells with mTOR plasmids, 2 μg DNA per 3×10E5 cells was transfected with Fugene 6 transfection reagent (Roche). For double transfection of plasmids with miRNA-precursors and inhibitors, pre- and anti-miRs were added to the plasmid/Fugene transfection mix in the same final concentrations as stated above. mTOR (Acc. NM004958) full length (SKU SC124066) and ORF-constructs (SKU RC220457) were obtained from the Origene collection (Origene, Rockville, Md.).

Series [3] deals with E-Selectin. Briefly: E-Selectin mRNA expression in endothelial cells (Taqman PCR). The format is cell-based, human. To be noted: vs scrambled premiR control; FIG. 13. How it is done:
as §1

Series [4] has as its system VCAM-1. The series can be described thus: Agilent microarray after miR-100 overexpression in endothelial cells, VCAM-1. The series is classed as cell-based, human. To be noted: 48 hours after transfection vs control oligonucleotide, FIG. 12. How it is done:
as §2, §3, §4

Series [5] relates to endothelial cells. Briefly: planar matrigel assay, endothelial network formation. The series is classed as cell-based, human.
The test system of series [6] is endothelial cells. Briefly: flow cytometric quantification of Annexin V-staining (apoptosis). The series is classed as cell-based, human. Conditions: compared to irrelevant control sequence, FIG. 3. From the text: (§7) To assess whether the observed differences were secondary to effects on cellular viability, endothelial cell apoptosis and proliferation following miR-100 modulation was checked. […] DNA-synthesis rate was further analyzed by measuring BrdU-Incorporation, which correlates well with cellular proliferation.
In general terms: Flow cytometry measures light scatter and fluorescence of single cells or particles in a stream.

The test system of series [7] is vascular smooth muscle cells. The series can be described thus: BrdU-Incorporation (proliferation), smooth muscle cells. The series is classed as cell-based, human. To be noted: FIG. 4.
Series [8] relates to endothelial cells. The series can be described thus: BrdU-Incorporation (proliferation), endothelial cells. To be noted: FIG. 3. The series is classed as cell-based, human.
Text: as §7

A further series deals with HEK293 cells. Briefly: HEK cell proliferation, rescue-experiment with mTOR plasmids. The series is classed as cell-based, human. Conditions: 8nM oligonucleotide; FIG. 7. As to the method: To investigate if the repression of mTOR was responsible for the observed attenuation of cellular proliferation by miR-100, a rescue-experiment was performed by transfecting mTOR-coding plasmids in combination with pre-miR-100.
as §6
Due to the large plasmid size of mTOR, it was not possible to achieve a sufficient transfection rate in endothelial cells without procedure-related toxic effects and therefore the easily transfected HEK-cells were chosen as a culture model, where the miR-100 effects on proliferation seen in endothelial cells could be reproduced (FIG. 7).

For a further series, the system named is mTOR (FRAP1-gene). Briefly: microarray based gene expression analysis of endothelial cells following miR-100 overexpression (mTOR). The series is classed as cell-based, human. The text has this:
Using a combination of bioinformatic prediction algorithms and microarray based gene expression analysis of endothelial cells following miR-100 overexpression, it was searched for potential target genes of miR-100 that could be responsible for the observed effects.

In series [9] the test system is ICAM-1. The series can be described thus: ICAM-1 mRNA expression in endothelial cells (Taqman PCR). Conditions: vs scrambled premiR control; FIG. 13. The series is classed as cell-based, human. As to the method: as §1
The test system of series [10] is E-Selectin. Briefly: E-Selectin protein expression in endothelial cells (Western blot). The format is cell-based, human. How it is done:
as §5

Series [11] has as its system VCAM-1. Briefly: VCAM-1 protein expression in endothelial cells (Western blot). The series is classed as cell-based, human. As to the method:
as §5

The next series concerns HUVECs / human PBMCs. Briefly: Leukocyte-HUVEC interaction under flow conditions (flow chamber). The format is cell-based. Conditions: TNF-alpha 30 ng/ml for 24 h, flow 1 dyn/cm^2; FIG. 15. As to the method:
HUVECs were grown to confluence, transfected with either anti-miR-100 or pre-Mir-100 oligonucelotides or scrambled controls and stimulated with TNF-alpha 30 ng/ml for 24 h. Human PBMCs (HPBMCs) were obtained from buffy coats of healthy donors by Ficoll-Hypaque density gradient centrifugation. The flow chamber was assembled and placed onto an inverted microscope stage, and freshly isolated HPBMCs (1×10^6/ml) were perfused across the endothelial monolayers. In all experiments, leukocyte interactions were determined over 105 min at 1 dyn/cm^2. Cells interacting on the surface of the endothelium were visualized and recorded using phase-contrast microscopy.
To test if this change in expression results in a functional difference in leukocyte rolling and adhesion to the endothelial surface, the attachment of isolated peripheral blood mononuclear cells (PBMC) to transfected endothelial cells was investigated under physiologic flow conditions in a flow chamber apparatus.
A physiological venous blood flow (1 dynes/cm^2) was induced by a flow chamber apparatus and the number of rolling or adherent peripheral blood mononuclear cells (PBMCs) was counted.

In series [12] the test system is cultured cancer cells (oral squamous cell carcinoma). To be noted: Henson et al. 2009; cited from earlier work.
The next series concerns miR-100. Briefly: miR-100 level by quantitative stem-loop RT-PCR after pre-miR/anti-miR transfection. The format is cell-based, human. To be noted: 24 h following transfection; vs irrelevant-sequence controls; FIG. 2. The text has this:
To verify the expression of miR-100 in pure cell populations of the vascular wall, stem-loop RT-PCR was used for total RNA-isolates from cultured human endothelial cells (HUVECs) and human aortic vascular smooth muscle cells.
MicoRNA expression was validated by quantitative stem-loop PCR technology (TaqMan MicroRNA Assays, Applied Biosystems, Foster City, Calif.). The use of target-specific reverse transcription primers and TaqMan hybridization probes allows the specific detection of mature microRNAs. MicroRNA expression was normalized to the expression of the small RNAs rnu19 and rnu48.
miR-100 was strongly expressed in both cell types. To investigate a potential role of miR-100 for angiogenesis, miR-100 was overexpressed and silenced in these cell types by transfecting specific miR-100 precursors (pre-miRs) or antisense-molecules (anti-miRs), respectively. […] Pre- and anti-miRs with an irrelevant nucleotide sequence served as negative controls. There was no significant difference in cellular viability following transfection with the different compounds.
For transfection with pre-miR microRNA precursor molecules or anti-miRmiRNA inhibitors (all Ambion), cells were cultured to 70% confluence and transfected with 8nM pre-miR-100 or anti-miR-100 oligonucleotides using Lipofectamin RNAiMax (invitrogen) according to the manufacturers instructions. […]

Series [13] has as its system endothelial cells. The series can be described thus: three-dimensional spheroid culture assay, endothelial sprouting. The format is cell-based, human.
[14] abbreviates: after 24 h TNF-α stimulation, FIG. 14B.

B1: pre-miR-100: synthetic miR-100 precursor molecule, SEQ ID No. 8, used to overexpress miR-100; processed to mature miRNA-100 (SEQ ID No: 9) (nucleic acid)
chain: CCUGUUGCCACAAACCCGUAGAUCCGAACUUGUGGUAUUAGUCCGCACAAGCUUGUAUCUAUAGGUAUGUGUCUGUUAGG
modifications: listed as RNA, chemistry not given here
Take B1: the “VCAM-1 mRNA relative expression” value in the series with VCAM-1 [1] is reported as “decrease”. In addition, in the series with E-Selectin (SELE), the “E-Selectin (SELE) gene expression” value is “strong downregulation”. For the same molecule, the “ICAM-1 protein, upregulation after TNF-α stimulation” value in the series with ICAM-1 [2] (setting [14]) was “blunts the upregulation in response to inflammatory stimuli”. The “ICAM-1 protein, baseline expression” value in the series on ICAM-1 [2] (ratio to β-tubulin, FIG. 14A) is on record as “decreases baseline expression”. Moreover, the “mTOR-expression on both mRNA as well as protein level” value with mTOR is “significantly repressed”. For the same molecule, the “E-Selectin mRNA relative expression” value with E-Selectin [3] is given as “decrease”. In addition, the VCAM-1 gene expression entry in the series on VCAM-1 [4] is reported as “strong downregulation”. Moreover, the endothelial network formation entry in the series on endothelial cells [5] is given as “significant inhibitory effect”. Further, the endothelial cell apoptosis result in the series with endothelial cells [6] was “slight increase in endothelial cell apoptosis”. The “inhibitory effect on proliferation, smooth muscle cells compared with endothelial cells” value in series [7] is given as “more pronounced in endothelial cells than in smooth muscle cells”. The “endothelial cell proliferation (DNA-synthesis rate)” value with endothelial cells [8] is given as “significant attenuation of endothelial cell proliferation”. Also, the “cell proliferation of HEK cells” value in the series with HEK293 cells is given as “anti-proliferative effect”. For the same molecule, the “mTOR (FRAP1) gene expression” value in the series on mTOR (FRAP1-gene) is listed as “downregulated”. The “ICAM-1 mRNA relative expression” value in the series on ICAM-1 [9] is given as “decrease”. Also, in the series on E-Selectin [10] (setting [14]), the “E-Selectin protein, upregulation after TNF-α stimulation” value is recorded as “blunts the upregulation in response to inflammatory stimuli”. For the same molecule, in the series with E-Selectin [10] (ratio to β-tubulin), the “E-Selectin protein, baseline expression” value is “decreases baseline expression”. Also, the “VCAM-1 protein, upregulation after TNF-α stimulation” value in the series with VCAM-1 [11] (setting [14]) is on record as “blunts the upregulation in response to inflammatory stimuli”. In addition, the “VCAM-1 protein, baseline expression” value in the series with VCAM-1 [11] (ratio to β-tubulin, FIG. 14A) is listed as “decreases baseline expression”. Moreover, the “leukocyte (PBMC) adhesion to transfected endothelial cells” value in the series on HUVECs / human PBMCs was “significantly attenuates leukocyte adhesion”. The cell proliferation entry in series [12] was “significantly reduced cell proliferation”. Further, the “detectable miR-100 (relative miR-100 expression)” value in the series on miR-100 is reported as “strong increase in detectable miR-100”. For the same molecule, the “endothelial sprouting (total sprout length)” value with endothelial cells [13] is given as “significant inhibitory effect”.

(Values after patent publication US20140377324A1, “Pharmaceutical Composition Comprising miRNA-100 And Its Use In The Modulation of Blood Vessel Growth and Endothelial Inflammation” (Universitatsklinikum Freiburg, priority 2009, published 2014).)
